For 1 substance, percentage of CXCR4 positive cells (flow cytometry after 3 days of differentiation to definitive endoderm; antibody results are on record in patent US20090093372A1.

The experiment has as its target human E-cadherin on human embryonic stem cells (hESCs; CyT203) (human) (UniProt P12830). In words: cell-based or functional assay.
UniProt P12830, sequence (P12830 155-882 limits assumed): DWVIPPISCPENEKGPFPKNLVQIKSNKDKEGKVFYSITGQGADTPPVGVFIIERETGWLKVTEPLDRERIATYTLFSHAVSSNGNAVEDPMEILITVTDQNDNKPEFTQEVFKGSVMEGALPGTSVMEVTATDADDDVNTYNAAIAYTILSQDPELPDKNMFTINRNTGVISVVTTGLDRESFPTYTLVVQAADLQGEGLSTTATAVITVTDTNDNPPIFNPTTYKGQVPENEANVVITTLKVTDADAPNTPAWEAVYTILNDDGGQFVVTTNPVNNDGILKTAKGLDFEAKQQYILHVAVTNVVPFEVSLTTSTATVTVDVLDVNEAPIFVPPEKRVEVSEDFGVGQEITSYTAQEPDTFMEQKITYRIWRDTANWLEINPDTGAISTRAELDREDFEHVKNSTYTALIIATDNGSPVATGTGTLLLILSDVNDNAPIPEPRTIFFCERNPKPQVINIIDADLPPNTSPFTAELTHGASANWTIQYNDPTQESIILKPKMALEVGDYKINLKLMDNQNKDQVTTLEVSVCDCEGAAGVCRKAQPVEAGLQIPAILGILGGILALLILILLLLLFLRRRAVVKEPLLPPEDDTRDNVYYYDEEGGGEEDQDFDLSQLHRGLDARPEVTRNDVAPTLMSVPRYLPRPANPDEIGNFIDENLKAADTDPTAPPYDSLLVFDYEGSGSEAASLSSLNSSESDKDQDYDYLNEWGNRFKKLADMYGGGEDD

For “mouse anti-human E-cadherin antibody (Zymed Cat. No. 13-1700)”, the percentage of CXCR4 positive cells (flow cytometry after 3 days of differentiation to definitive endoderm; antibody at 5 µg/mL on day 1) turned out to be 93%.
